To fix the notation:
B1: GLT8D2 (parent)
chain: QEAKLLHWNGRHKPWDFPSVHNDL
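Note: lentivirally expressed fusions sorted by FACS into six bins by GFP to DsRed ratio, PSI derived from sequencing read proportions per bin multiplied by bin number.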

The variants in this data set derive from B1. Briefly: protein stability index of a GFP-peptide fusion (GPS, HEK-293T) (PSI 1-6); higher = more stable. The following applies: c terminus: a fixed tail appended.
As for QEKKLLHWNGRHKPWDFPSVHNDL, the protein stability index came out at 2.59. With QEHKLLHWNGRHKPWDFPSVHNDL, the protein stability index stood at 2.83. For the variant QEQKLLHWNGRHKPWDFPSVHNDL, the protein stability index came out at 2.58. Regarding QERKLLHWNGRHKPWDFPSVHNDL, the protein stability index turned out to be 1.95.

On to QEYKLLHWNGRHKPWDFPSVHNDL, for which the protein stability index came out at 2.19.

Turning to QETKLLHWNGRHKPWDFPSVHNDL, the protein stability index worked out at 2.75.

For the variant QENKLLHWNGRHKPWDFPSVHNDL, the protein stability index came out at 2.84. With QEWKLLHWNGRHKPWDFPSVHNDL the figure was 2.24; with QEVKLLHWNGRHKPWDFPSVHNDL, 2.5; with QEEKLLHWNGRHKPWDFPSVHNDL, 3.51.

Consider QEIKLLHWNGRHKPWDFPSVHNDL, for which the protein stability index is 2.24. As to QEPKLLHWNGRHKPWDFPSVHNDL, the protein stability index was determined as 2.33.

Take QEDKLLHWNGRHKPWDFPSVHNDL: the protein stability index stood at 3.47. In the case of QELKLLHWNGRHKPWDFPSVHNDL it was 2.59; in that of QEGKLLHWNGRHKPWDFPSVHNDL, 2.6; in that of QESKLLHWNGRHKPWDFPSVHNDL, 2.69. As for QEFKLLHWNGRHKPWDFPSVHNDL, the protein stability index is 2.25. Consider QECKLLHWNGRHKPWDFPSVHNDL, for which the protein stability index was 2.23. With QEMKLLHWNGRHKPWDFPSVHNDL the figure was 3.06; with QEAKKLHWNGRHKPWDFPSVHNDL, 3.14; with QEAKALHWNGRHKPWDFPSVHNDL, 3.04. As to QEAKPLHWNGRHKPWDFPSVHNDL, the protein stability index worked out at 3.05. With QEAKRLHWNGRHKPWDFPSVHNDL the figure was 2.92; with QEAKYLHWNGRHKPWDFPSVHNDL, 2.45; with QEAKHLHWNGRHKPWDFPSVHNDL, 2.67. In the case of QEAKILHWNGRHKPWDFPSVHNDL, the protein stability index came out at 2.73. With QEAKVLHWNGRHKPWDFPSVHNDL the figure was 2.58; with QEAKSLHWNGRHKPWDFPSVHNDL, 3.27; with QEAKCLHWNGRHKPWDFPSVHNDL, 2.77. Take QEAKTLHWNGRHKPWDFPSVHNDL: the protein stability index was 2.81.

Take QEAKMLHWNGRHKPWDFPSVHNDL: the protein stability index was 2.94.

Consider QEAKNLHWNGRHKPWDFPSVHNDL, for which the protein stability index is 2.67. QEAKQLHWNGRHKPWDFPSVHNDL: the protein stability index worked out at 2.83. With QEAKELHWNGRHKPWDFPSVHNDL the figure was 3.33; with QEAKDLHWNGRHKPWDFPSVHNDL, 3.3. In the case of QEAKWLHWNGRHKPWDFPSVHNDL it was 2.59. On to QEAKFLHWNGRHKPWDFPSVHNDL, for which the protein stability index amounted to 2.51.

In the case of QEAKGLHWNGRHKPWDFPSVHNDL, the protein stability index worked out at 3.26. For QFAKLLHWNGRHKPWDFPSVHNDL, the protein stability index was determined as 1.58. As to QYAKLLHWNGRHKPWDFPSVHNDL, the protein stability index was 2.04. In the case of QNAKLLHWNGRHKPWDFPSVHNDL it was 2.48; in that of QMAKLLHWNGRHKPWDFPSVHNDL, 1.45. In the case of QRAKLLHWNGRHKPWDFPSVHNDL it was 2.17; in that of QGAKLLHWNGRHKPWDFPSVHNDL, 2.39; in that of QIAKLLHWNGRHKPWDFPSVHNDL, 1.78.

As for QVAKLLHWNGRHKPWDFPSVHNDL, the protein stability index was 1.89. In the case of QPAKLLHWNGRHKPWDFPSVHNDL it was 2.58; in that of QTAKLLHWNGRHKPWDFPSVHNDL, 2.18. In the case of QWAKLLHWNGRHKPWDFPSVHNDL it was 2.2; in that of QLAKLLHWNGRHKPWDFPSVHNDL, 1.96; in that of QSAKLLHWNGRHKPWDFPSVHNDL, 2.04. Turning to QHAKLLHWNGRHKPWDFPSVHNDL, the protein stability index worked out at 2.21. In the case of QKAKLLHWNGRHKPWDFPSVHNDL it was 2.18; in that of QDAKLLHWNGRHKPWDFPSVHNDL, 2.65. As for QQAKLLHWNGRHKPWDFPSVHNDL, the protein stability index was 2.85.

For QEANLLHWNGRHKPWDFPSVHNDL, the protein stability index worked out at 2.68. In the case of QEACLLHWNGRHKPWDFPSVHNDL it was 2.3; in that of QEAALLHWNGRHKPWDFPSVHNDL, 2.81; in that of QEAQLLHWNGRHKPWDFPSVHNDL, 2.5. In the case of QEAMLLHWNGRHKPWDFPSVHNDL it was 2.64; in that of QEAWLLHWNGRHKPWDFPSVHNDL, 2.7; in that of QEALLLHWNGRHKPWDFPSVHNDL, 2.56. In the case of QEAHLLHWNGRHKPWDFPSVHNDL it was 2.84; in that of QEAELLHWNGRHKPWDFPSVHNDL, 3.28; in that of QEAGLLHWNGRHKPWDFPSVHNDL, 2.89. In the case of QEASLLHWNGRHKPWDFPSVHNDL, the protein stability index came to 2.99. QEAILLHWNGRHKPWDFPSVHNDL: the protein stability index was 2.47.

QEAYLLHWNGRHKPWDFPSVHNDL: the protein stability index is 2.13. With QEATLLHWNGRHKPWDFPSVHNDL the figure was 2.92.

In the case of QEAVLLHWNGRHKPWDFPSVHNDL, the protein stability index came to 2.34. With QEADLLHWNGRHKPWDFPSVHNDL the figure was 2.67. With QEAPLLHWNGRHKPWDFPSVHNDL the figure was 2.83; with QEARLLHWNGRHKPWDFPSVHNDL, 2.87.

Take QEAFLLHWNGRHKPWDFPSVHNDL: the protein stability index amounted to 2. With QEAKLLAWNGRHKPWDFPSVHNDL the figure was 2.87; with QEAKLEHWNGRHKPWDFPSVHNDL, 3.74. In the case of QEAKLKHWNGRHKPWDFPSVHNDL it was 2.52; in that of QEAKLDHWNGRHKPWDFPSVHNDL, 2.79; in that of QEAKLMHWNGRHKPWDFPSVHNDL, 2.3. With QEAKLNHWNGRHKPWDFPSVHNDL the figure was 2.71; with QEAKLCHWNGRHKPWDFPSVHNDL, 2.75; with QEAKLGHWNGRHKPWDFPSVHNDL, 2.89. As to QEAKLHHWNGRHKPWDFPSVHNDL, the protein stability index turned out to be 2.62. In the case of QEAKLYHWNGRHKPWDFPSVHNDL it was 2.56; in that of QEAKLQHWNGRHKPWDFPSVHNDL, 2.76; in that of QEAKLPHWNGRHKPWDFPSVHNDL, 2.7. For QEAKLIHWNGRHKPWDFPSVHNDL, the protein stability index amounted to 2.67. In the case of QEAKLRHWNGRHKPWDFPSVHNDL it was 2.85; in that of QEAKLVHWNGRHKPWDFPSVHNDL, 2.48.

For the variant QEAKLAHWNGRHKPWDFPSVHNDL, the protein stability index was 2.87.

As for QEAKLFHWNGRHKPWDFPSVHNDL, the protein stability index was found to be 2.83. In the case of QEAKLSHWNGRHKPWDFPSVHNDL it was 2.91. In the case of QEAKLWHWNGRHKPWDFPSVHNDL, the protein stability index came to 2.26. As for QEAKLTHWNGRHKPWDFPSVHNDL, the protein stability index worked out at 2.68.

Values taken from the supplement of paper PMC10567573.
